# Laboratory results from publication PMC2647743 (Bioconjugate chemistry, 2008).
# Key:
# PC-3 tumor xenografts = experiment: Biodistribution; settings: PC-3 tumor bearing SCID mice; for tumor retention: initial (15 min) uptake retained in the tumor tissue: 24 hr post-injection relative to the 15 min values
# Biodistribution = settings: ICR SCID, mouse, in vivo, 185 kBq, total radioactivity, tumor uptake, PC-3 tumor bearing SCID mice, 15 min post-injection
SMILES,tumor retention: initial (15 min) uptake retained in the tumor tissue (PC-3 tumor xenografts),tissue uptake at 0.25 h (Biodistribution),"Heart (PC-3 tumor xenografts; 1 hr p.i., i.v.)","Liver (PC-3 tumor xenografts; 4 hr p.i., i.v., n = 5)","Lung (PC-3 tumor xenografts; 24 hr p.i., i.v., n = 5)"
CSCC[C@H](NC(=O)[C@H](CC(C)C)NC(=O)[C@H](Cc1cnc[nH]1)NC(=O)CNC(=O)[C@@H](NC(=O)[C@H](C)NC(=O)[C@H](Cc1c[nH]c2ccccc12)NC(=O)[C@H](CCC(N)=O)NC(=O)c1ccc(NC(=O)CN2CCN(CC(=O)O)CCN(CC(=O)O)CCN(CC(=O)O)CC2)cc1)C(C)C)C(N)=O [In-DOTA-AMBA-BBN(7-14)NH2],26.6%,6.36 ± 1.6 %ID/g,–,–,–
CSCC[C@H](NC(=O)[C@H](CC(C)C)NC(=O)[C@H](Cc1cnc[nH]1)NC(=O)CNC(=O)[C@@H](NC(=O)[C@H](C)NC(=O)[C@H](Cc1c[nH]c2ccccc12)NC(=O)[C@H](CCC(N)=O)NC(=O)CCCCCCCNC(=O)CN1CCN(CC(=O)O)CCN(CC(=O)O)CCN(CC(=O)O)CC1)C(C)C)C(N)=O [In-DOTA-8-AOC-BBN(7-14)NH2],11.4%,6.66 ± 2 %ID/g,0.19 ± 0.20 %ID/g,0.15 ± 0.02 %ID/g,0.07 ± 0.03 %ID/g
CSCC[C@H](NC(=O)[C@H](CC(C)C)NC(=O)[C@H](Cc1c[nH]cn1)NC(=O)CNC(=O)[C@@H](NC(=O)[C@H](C)NC(=O)[C@H](Cc1c[nH]c2ccccc12)NC(=O)[C@H](CCC(N)=O)NC(=O)CCC(=O)NCCOCCOCCNC(=O)CN1CCN(CC(=O)O)CCN(CC(=O)O)CCN(CC(=O)O)CC1)C(C)C)C(N)=O [In-DOTA-8-ADS-BBN(7-14)NH2],19.8%,6.21 ± 1.57 %ID/g,–,–,–
